Columns and labels:
[1] = target: T1, recombinant human CD137-ECD-Fc (APBio Inc.) (human, UniProt Q07011 24-186); assay: ELISA on coated human CD137-IgG4 Fc
T1 construct: extracellular domain; Made by APBio; also called CD137-Fc recombinant protein; recombinant CD137/Fc; not shown: IgG4 Fc

[2] = target: T2, CD137 expressed on cells (HEK-293F/CD137 cells); PMA/ionomycin-activated Jurkat cells; CD137 reporter HEK293 … (UniProt Q07011 24-255, limits assumed); assay: flow cytometry on HEK-293F/CD137 cells, antibody 50 µg/ml, anti-human Fc-A488
T2 construct: whole, on cells; One entry is used for CD137 on transfected HEK293/293F cells and for CD137 induced on Jurkat cells; also called 293F cells stably expressing CD137; CD137-overexpressing HEK-293F cells
T2 sequence (Q07011 24-255 limits assumed): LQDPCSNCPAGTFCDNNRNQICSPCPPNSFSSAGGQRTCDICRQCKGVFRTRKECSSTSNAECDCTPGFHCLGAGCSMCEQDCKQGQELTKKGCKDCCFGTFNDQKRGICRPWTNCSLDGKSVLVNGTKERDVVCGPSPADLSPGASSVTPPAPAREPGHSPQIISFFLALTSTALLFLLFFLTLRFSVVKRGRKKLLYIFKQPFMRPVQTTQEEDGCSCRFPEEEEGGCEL

T1 sequence (Q07011 24-186): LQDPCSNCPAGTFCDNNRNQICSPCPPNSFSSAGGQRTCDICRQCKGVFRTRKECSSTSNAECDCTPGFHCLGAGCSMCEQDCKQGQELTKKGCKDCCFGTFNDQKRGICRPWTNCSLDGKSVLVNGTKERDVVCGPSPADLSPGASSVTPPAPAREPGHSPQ

| binding result [1] | binding result [2] | Binder |
| --- | --- | --- |
| binds | binds | anti-CD137 antibody clone 54 (antibody, human IgG4 S228P, lambda, V domains shown, also called CD137 #54; CD137#54) VH: QVQLVQSGAEVKKPGSTVKVSCKASGGTFSSYAISWVRQAPGQGLEWMGRIIPILGIANYAQKFQGRVTITADKSTSTAYMELSSLRSEDTAVYYCASPPYYDSSGYYPLGAFDIWGQGTMVTVSS VL: SYELTQPPSVSVSPGQTASITCSGDKLGEKYASWYQQKAGQSPILVIYQDSKRPSGIPERFSGSNSGNTATLTISGLQAGDEADYYCQAWDGSSTYVFGTGTKVTVFG |
| – | binds | anti-CD137 antibody clone 15 (antibody, human IgG4 S228P, lambda, V domains shown, also called CD137 #15; anti-CD137#15) VH: QVQLVQSGAEVKKPGSSVKVSCKASGGTFSSYAISWVRQAPGQGLEWMGRIIPILGIANYAQKFQGRVTITADKSTSTAYMELSSLRSEDTAVYYCASDLYQLLFPYYYGMDVWGQGTTVTVSS VL: QLVLTQPPSASASLGASVTLTCTLSSGYSNYKVDWYQQRPGKGPRFVMRVGTGGIVGSKGDGIPDRFSVLGSGLNRYLTIKNIQEEDESDYHCGADHGSGSNLFWVFGGGTKLTVLG |
| binds | binds | anti-CD137 antibody clone 31 (antibody, human IgG4 S228P, lambda, V domains shown, also called CD137 #31; anti-CD137#31) VH: not shown VL: QSALTQPASVSGSPGQSITISCTGTSSDVGAYNFVSWYQQRPGKAPELMIYDVSDRPSGVSNRFSGSKSGNTASLTISGLQTEDEADYYCSSYTSSITRYVFGTGTKVTVLG |
